The RNAGym collection of RNA variant scans (doi:10.7554/elife.80360)

B1: HDV Ribozyme (parent)
chain: GGCCGGCAUGGUCCCAGCCUCCUCGCUGGCGCCGGCUGGGCAACAUUCCGAGGGGACCGUCCCCUCGGUAAUGGCGAAUGGGACCCA

Variants of: B1
Test: self-cleavage, relative activity (ratio to wild type); higher = more cleavage; co-transcriptional
With A8U C30U the self-cleavage was 0.529.
With A8U C30A the self-cleavage was 0.299.
Work on A8C G80A yielded a self-cleavage of 0.326.
For A8C G80U, the self-cleavage was 0.07.
A8C U46G gave a self-cleavage of 0.554.
In the case of A8C U46C, the self-cleavage is reported as 0.615.
A8C U37G gave a self-cleavage of 0.166.
Work on A8U C44G yielded a self-cleavage of 0.731.
For A8U C44U, the self-cleavage was 0.415.
With A8U C44A the self-cleavage was 0.449.
With A8C A71C the self-cleavage was 0.308.
With A8C A71U the self-cleavage was 0.427.
For A8C U69A, the self-cleavage was 0.688.
With A8C U69G the self-cleavage was 0.712.
Work on A8C G74U yielded a self-cleavage of 0.475.
A8C G74C showed a self-cleavage of 0.269.
Variant A8G G11A has a self-cleavage of 0.196.
Work on A8U G10A yielded a self-cleavage of 0.684.
In the case of A8U G10U, the self-cleavage is reported as 0.341.
For A8G U72A, the self-cleavage was 0.554.
Variant A8G U72C has a self-cleavage of 0.293.
Variant A8C G59A has a self-cleavage of 1.07.
In the case of A8C G59C, the self-cleavage is reported as 0.923.
With A8C G17C the self-cleavage was 0.
In the case of A8G C13A, the self-cleavage is reported as 0.175.
For A8U C61G, the self-cleavage was 0.623.
Work on A8C U9A yielded a self-cleavage of 0.755.
Work on A8C U9G yielded a self-cleavage of 0.692.
Variant A8C U9C has a self-cleavage of 0.962.
Variant A8U A70C has a self-cleavage of 0.692.
A8G A70U gave a self-cleavage of 0.831.
A8G A70G showed a self-cleavage of 1.09.
In the case of A8G C15A, the self-cleavage is reported as 0.554.
Variant A8G C15U has a self-cleavage of 0.7.
With A8G C15G the self-cleavage was 0.262.
Work on A8C G31A yielded a self-cleavage of 0.162.
A8G G40U showed a self-cleavage of 0.554.
In the case of A8G G40C, the self-cleavage is reported as 0.369.
Variant A8G C21U has a self-cleavage of 0.201.
A8G C21G showed a self-cleavage of 0.0536.
A8U G73C showed a self-cleavage of 0.0831.
Variant A8U G73U has a self-cleavage of 0.199.
With A8U G73A the self-cleavage was 0.323.
Variant A8U G40U has a self-cleavage of 0.415.
For A8U G40C, the self-cleavage was 0.234.
In the case of A8G C26U, the self-cleavage is reported as 1.16.
Variant A8G C26A has a self-cleavage of 1.11.
With A8G G81A the self-cleavage was 0.0875.
A8G C19A showed a self-cleavage of 0.107.
A8C C26A gave a self-cleavage of 0.629.
With A8G A45C the self-cleavage was 0.332.
In the case of A8G A45U, the self-cleavage is reported as 0.692.
Work on A8C C58A yielded a self-cleavage of 0.692.
With A8C C58G the self-cleavage was 0.68.
Variant A8C C84A has a self-cleavage of 0.751.
A8C C84U showed a self-cleavage of 0.462.
A8C C18G showed a self-cleavage of 0.0875.
A8C C18U showed a self-cleavage of 0.369.
Variant A8G G73A has a self-cleavage of 0.369.
Work on A8C C85G yielded a self-cleavage of 0.798.
In the case of A8C C85A, the self-cleavage is reported as 0.831.
Work on A8G A56G yielded a self-cleavage of 0.719.
In the case of A8C G40A, the self-cleavage is reported as 0.511.
With A8U C15A the self-cleavage was 0.369.
A8U C15G gave a self-cleavage of 0.277.
Variant A8U G28C has a self-cleavage of 0.166.
With A8U G28U the self-cleavage was 0.131.
A8U G29A showed a self-cleavage of 0.0852.
A8U G29U showed a self-cleavage of 0.0437.
Variant A8C C15G has a self-cleavage of 0.378.
Work on A8C C15U yielded a self-cleavage of 0.604.
In the case of A8U C14U, the self-cleavage is reported as 0.864.
In the case of A8G U20C, the self-cleavage is reported as 0.217.
For A8C G28A, the self-cleavage was 0.252.
In the case of A8C G28U, the self-cleavage is reported as 0.0978.
For A8U C22G, the self-cleavage was 0.19.
Work on A8U C22U yielded a self-cleavage of 0.598.
With A8G G54C the self-cleavage was 1.07.
Variant A8G G54A has a self-cleavage of 0.877.
For A8G C33G, the self-cleavage was 0.0755.
Variant A8C C21A has a self-cleavage of 0.0449.
In the case of A8G C86A, the self-cleavage is reported as 1.15.
A8G C86G showed a self-cleavage of 1.23.
A8C G34U gave a self-cleavage of 0.104.
A8C G34C showed a self-cleavage of 0.178.
Variant A8C U12C has a self-cleavage of 0.208.
Work on A8C U12G yielded a self-cleavage of 0.831.
For A8C C44G, the self-cleavage was 0.401.
In the case of A8C C44A, the self-cleavage is reported as 0.222.
A8U C58U gave a self-cleavage of 1.15.
Work on A8U C58A yielded a self-cleavage of 0.862.
A8C G55U gave a self-cleavage of 0.831.
Variant A8C G55C has a self-cleavage of 1.03.
In the case of A8C C61U, the self-cleavage is reported as 0.643.
A8G G55C showed a self-cleavage of 0.982.
For A8G G55U, the self-cleavage was 0.804.
With A8U C24U the self-cleavage was 0.787.
In the case of A8U C24A, the self-cleavage is reported as 0.208.
A8G showed a self-cleavage of 1.02.
A8U gave a self-cleavage of 0.863.
For A8C G53C, the self-cleavage was 0.739.
A8U G35A gave a self-cleavage of 0.426.
Work on A8G A83C yielded a self-cleavage of 0.262.
For A8G A83G, the self-cleavage was 0.88.
Variant A8U G68U has a self-cleavage of 0.858.
For A8U G68C, the self-cleavage was 0.752.
For A8G G52U, the self-cleavage was 0.849.
For A8U G39A, the self-cleavage was 0.318.
Work on A8G C48A yielded a self-cleavage of 1.07.
In the case of A8G C48U, the self-cleavage is reported as 1.26.
A8G C48G gave a self-cleavage of 1.11.
In the case of A8C U60C, the self-cleavage is reported as 0.489.
Variant A8C U60A has a self-cleavage of 0.831.
Variant A8G G80U has a self-cleavage of 0.173.
For A8G C41A, the self-cleavage was 0.914.
Variant A8G U65C has a self-cleavage of 1.05.
In the case of A8C C14G, the self-cleavage is reported as 0.237.
A8C C14A showed a self-cleavage of 0.375.
A8C C14U gave a self-cleavage of 0.831.
Work on A8G C22A yielded a self-cleavage of 0.101.
Work on A8G U23G yielded a self-cleavage of 0.776.
With A8G U23A the self-cleavage was 0.9.
Variant A8C G52A has a self-cleavage of 0.831.
For A8C G52U, the self-cleavage was 0.566.
A8C C41U gave a self-cleavage of 0.748.
A8C A77G showed a self-cleavage of 0.798.
Variant A8G G76C has a self-cleavage of 1.13.
With A8G C58U the self-cleavage was 0.962.
A8G C58G gave a self-cleavage of 0.895.
In the case of A8G C58A, the self-cleavage is reported as 1.07.
A8G C64A gave a self-cleavage of 0.764.
For A8G A87U, the self-cleavage was 0.991.
With A8C C63U the self-cleavage was 0.633.
A8C C75G showed a self-cleavage of 0.277.
With A8C C75A the self-cleavage was 0.128.
Work on A8G U27A yielded a self-cleavage of 0.867.
Work on A8G U27C yielded a self-cleavage of 0.791.
For A8U C33A, the self-cleavage was 0.185.
A8U G11A gave a self-cleavage of 0.151.
A8U C48A showed a self-cleavage of 0.875.
A8U C48G showed a self-cleavage of 1.25.
In the case of A8U A45C, the self-cleavage is reported as 0.166.
Variant A8U G54A has a self-cleavage of 0.831.
For A8U G54U, the self-cleavage was 0.574.
A8C G38C showed a self-cleavage of 0.0978.
For A8C G38A, the self-cleavage was 0.0369.
With A8G G50U the self-cleavage was 0.984.
A8U C26A gave a self-cleavage of 0.997.
A8U C26G showed a self-cleavage of 1.03.
Work on A8U C26U yielded a self-cleavage of 0.86.
Variant A8C C64A has a self-cleavage of 0.639.
Variant A8C C64G has a self-cleavage of 0.415.
A8C C64U gave a self-cleavage of 0.923.
Work on A8C G54C yielded a self-cleavage of 0.746.
Variant A8C C32A has a self-cleavage of 0.119.
In the case of A8G C85U, the self-cleavage is reported as 1.06.
A8G G10U gave a self-cleavage of 0.431.
For A8G C63A, the self-cleavage was 1.22.
Variant A8G C63G has a self-cleavage of 1.11.
Work on A8U C75A yielded a self-cleavage of 0.
Variant A8U C75U has a self-cleavage of 0.298.
A8G G29C showed a self-cleavage of 0.
With A8G G29A the self-cleavage was 0.
Work on A8G A43U yielded a self-cleavage of 0.519.
Work on A8G A43G yielded a self-cleavage of 0.415.
Variant A8G A43C has a self-cleavage of 0.145.
Work on A8C G82A yielded a self-cleavage of 0.172.
